Paper PMC12697964

Molecular target: N-terminal region deleted seYdjB-like protein (amino acid from 35 to 162) (Salmonella enterica)
Experiment: SEC-MALS; Superdex 75 10/300 GL, SEC buffer (20 mM Tris-HCl pH 8.0, 150 mM NaCl), 0.6 mL/min; three-angle light scattering and refractive index detectors; BSA as reference

N-terminal region deleted seYdjB-like protein (amino acid from 35 to 162) (domain or fragment)
stoichiometry N: 2
